No end group written: not given here.
B1: Gallus gallus Noxa BH3 domain peptide (peptide)
peptide: ERDAVAECALELRRIGDKADLQQKVL
notes: Noxa, Gallus gallus, BH3 domain peptide; source: synthetic peptide (Mimotopes)

Columns and labels:
[1] = biological target: CNP058 (Canarypox virus, UniProt Q6VZT9); test: biochemical; assay type: binding
[2] = biological target: Noxa BH3 (Homo sapiens) (UniProt Q13794); test: ITC; conditions: cited from earlier work
[3] = biological target: T1, Canarypox virus CNP058 lacking the C-terminal transmembrane domain (residues 1–143) (canarypox virus, UniProt Q6VZT9 1-143); test: ITC; conditions: both partners purified
T1 sequence: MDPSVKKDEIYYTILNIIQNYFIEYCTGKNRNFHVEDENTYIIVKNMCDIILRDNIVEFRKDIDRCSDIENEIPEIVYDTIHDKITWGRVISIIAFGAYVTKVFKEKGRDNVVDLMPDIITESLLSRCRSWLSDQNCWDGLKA

Chain of Noxa BH3 (Homo sapiens) (Q13794 18-43): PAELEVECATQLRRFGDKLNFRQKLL

Molecule | Kd [3] [µM] | other results
PEVNEAIVRTIAAQLAEIGDQLDKQIKAKVVNDL [GG_Bid] | – | Kd [1]: 0.05 µM
FPV039 (from UniProt Q9J5G4) | – | Kd [2]: 0.028 µM
PEVNEAIVRTIAAQLAEIGDQLDKQIKAKVVNDL [Gallus gallus Bid BH3 domain peptide (residues 77-110)] | 0.05 | –
B1 | 3.28 | –
EEQWAREIGAQLRRMADDLNAQYERR [Homo sapiens Puma BH3 domain peptide (residues 130-155)] | 2.48 | –
VPQDASTKKLSECLKRIGDELDSNMELQ [Homo sapiens Bax BH3 domain peptide (residues 50-77)] | 0.326 | –
EARTEVQIARKLQCIADQFHRLHIQR [Gallus gallus Bmf BH3 domain peptide (residues 135-160)] | 0.294 | –

Source: PMC5691656 (Viruses, 2017)
